Assay results taken from PMC3014985.
Values joined by “and” are separate entries in the source; they are usually repeats but may differ in a detail not shown here. Equal entries are not always repeated. Where two headings read alike, the source gives them in different places.

Key:
[1] = molecular target: 6His-RVFV NP (Rift Valley fever virus nucleoprotein with N-terminal hexahistidine tag) (Rift Valley fever virus (strain Smithburn)) (UniProt P21700); assay: SEC
[2] = molecular target: 6His-RVFV NP (Rift Valley fever virus nucleoprotein with N-terminal hexahistidine tag) (Rift Valley fever virus (strain Smithburn)) (UniProt P21700); assay: SEC; remark: listed apart in the source

“6His-RVFV NP (Rift Valley fever virus nucleoprotein with N-terminal hexahistidine tag) (from UniProt P21700 1-245) (natural protein)” was tested, and the stoichiometry N [1] was 4.3 and the stoichiometry N [2] was 3 and 2.
